Laboratory results reported in patent US20060257938A1, “Method of screening for drugs that block ligand binding to a lipid binding protein” (priority 2005, published 2006).

What was measured:
Type in all cases: binding
Settings in all cases: response relative to ADIFAB2
[1] = Probe fluorescence ratio response to oleic acid relative to ADIFAB2
Summary of the method: (§1)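 Fluorescently labeled rat intestinal FABP variants were read at two emission wavelengths, near the unbound maximum (about 420 to 480 nm) and the FFA-bound maximum (about 495 to 580 nm). R = Fλ1/Fλ2 after subtracting probe-free intensity; ΔR = R+agent − R0, normalized to ADIFAB2 (rI-FABP-L72A).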

[2] = Probe fluorescence ratio response to linoleic acid relative to ADIFAB2
Summary of the method: as §1

[3] = Probe fluorescence ratio response to palmitic acid relative to ADIFAB2
Summary of the method: as §1

[4] = Probe fluorescence ratio response to arachidonic acid relative to ADIFAB2
Summary of the method: as §1

[5] = Probe fluorescence ratio response to linolenic acid relative to ADIFAB2
Summary of the method: as §1

B1: 49K1, 72A (protein, listed as Rattus norvegicus)
chain: AFDGTWKVDRNENYEKFMEKMGINVVKRKLGAHDNLKLTITQEGNKFTKKESSNFRNIDVVFELGVDFAYSAADGTELTGTWTMEGNKLVGKFKRVDNGKELIAVREISGNELIQTYTYEGVEAKRIFKKE
modifications: PEPTIDE (1)...(131) wild-type rat intestinal fatty acid binding protein
[1]
  DR/DR OA: 1.51
[2]
  DR/DR LA: 1.71
[3]
  DR/DR PA: 0.80
[4]; Arachidonic acid
  DR/DR AA: 1.64
[5]
  DR/DR LNA: 1.68

B2: 49R1, 72A (protein, listed as Rattus norvegicus)
chain: AFDGTWKVDRNENYEKFMEKMGINVVKRKLGAHDNLKLTITQEGNKFTRKESSNFRNIDVVFELGVDFAYSAADGTELTGTWTMEGNKLVGKFKRVDNGKELIAVREISGNELIQTYTYEGVEAKRIFKKE
modifications: PEPTIDE (1)...(131) wild-type rat intestinal fatty acid binding protein
[1]
  DR/DR OA: 1.56
[2]
  DR/DR LA: 1.75
[3]
  DR/DR PA: 0.78
[4]; Arachidonic acid
  DR/DR AA: 1.68
[5]
  DR/DR LNA: 1.70

B3: 49N1, 72A (protein, listed as Rattus norvegicus)
chain: AFDGTWKVDRNENYEKFMEKMGINVVKRKLGAHDNLKLTITQEGNKFTNKESSNFRNIDVVFELGVDFAYSAADGTELTGTWTMEGNKLVGKFKRVDNGKELIAVREISGNELIQTYTYEGVEAKRIFKKE
modifications: PEPTIDE (1)...(131) wild-type rat intestinal fatty acid binding protein
[1]
  DR/DR OA: 1.11
[2]
  DR/DR LA: 1.10
[3]
  DR/DR PA: 0.74
[4]; Arachidonic acid
  DR/DR AA: 1.26
[5]
  DR/DR LNA: 1.18

B4: 49T1, 72A (protein, listed as Rattus norvegicus)
chain: AFDGTWKVDRNENYEKFMEKMGINVVKRKLGAHDNLKLTITQEGNKFTTKESSNFRNIDVVFELGVDFAYSAADGTELTGTWTMEGNKLVGKFKRVDNGKELIAVREISGNELIQTYTYEGVEAKRIFKKE
modifications: PEPTIDE (1)...(131) wild-type rat intestinal fatty acid binding protein
[1]
  DR/DR OA: 0.67
[2]
  DR/DR LA: 0.67
[3]
  DR/DR PA: 0.43
[4]; Arachidonic acid
  DR/DR AA: 0.66
[5]
  DR/DR LNA: 0.64

B5: 49S1, 72A (protein, listed as Rattus norvegicus)
chain: AFDGTWKVDRNENYEKFMEKMGINVVKRKLGAHDNLKLTITQEGNKFTSKESSNFRNIDVVFELGVDFAYSAADGTELTGTWTMEGNKLVGKFKRVDNGKELIAVREISGNELIQTYTYEGVEAKRIFKKE
modifications: PEPTIDE (1)...(131) wild-type rat intestinal fatty acid binding protein
[1]
  DR/DR OA: 1.18
[2]
  DR/DR LA: 1.29
[3]
  DR/DR PA: 0.66
[4]; Arachidonic acid
  DR/DR AA: 1.27
[5]
  DR/DR LNA: 1.34

B6: 51C3, 72A (protein, listed as Rattus norvegicus)
chain: AFDGTWKVDRNENYEKFMEKMGINVVKRKLGAHDNLKLTITQEGNKFTVKCSSNFRNIDVVFELGVDFAYSAADGTELTGTWTMEGNKLVGKFKRVDNGKELIAVREISGNELIQTYTYEGVEAKRIFKKE
modifications: PEPTIDE (1)...(131) wild-type rat intestinal fatty acid binding protein
[1]
  DR/DR OA: 1.35
[2]
  DR/DR LA: 1.55
[3]
  DR/DR PA: 0.69
[4]; Arachidonic acid
  DR/DR AA: 1.44
[5]
  DR/DR LNA: 1.47

B7: 49Q1, 72A (protein, listed as Rattus norvegicus)
chain: AFDGTWKVDRNENYEKFMEKMGINVVKRKLGAHDNLKLTITQEGNKFTQKESSNFRNIDVVFELGVDFAYSAADGTELTGTWTMEGNKLVGKFKRVDNGKELIAVREISGNELIQTYTYEGVEAKRIFKKE
modifications: PEPTIDE (1)...(131) wild-type rat intestinal fatty acid binding protein
[1]
  DR/DR OA: 1.20
[2]
  DR/DR LA: 1.25
[3]
  DR/DR PA: 0.69
[4]; Arachidonic acid
  DR/DR AA: 0.92
[5]
  DR/DR LNA: 1.23

B8: 49W1, 72A (protein, listed as Rattus norvegicus)
chain: AFDGTWKVDRNENYEKFMEKMGINVVKRKLGAHDNLKLTITQEGNKFTWKESSNFRNIDVVFELGVDFAYSAADGTELTGTWTMEGNKLVGKFKRVDNGKELIAVREISGNELIQTYTYEGVEAKRIFKKE
modifications: PEPTIDE (1)...(131) wild-type rat intestinal fatty acid binding protein
[1]
  DR/DR OA: 0.56
[2]
  DR/DR LA: 0.58
[3]
  DR/DR PA: 0.35
[4]; Arachidonic acid
  DR/DR AA: 0.58
[5]
  DR/DR LNA: 0.58

B9: 49Y1, 72A (protein, listed as Rattus norvegicus)
chain: AFDGTWKVDRNENYEKFMEKMGINVVKRKLGAHDNLKLTITQEGNKFTYKESSNFRNIDVVFELGVDFAYSAADGTELTGTWTMEGNKLVGKFKRVDNGKELIAVREISGNELIQTYTYEGVEAKRIFKKE
modifications: PEPTIDE (1)...(131) wild-type rat intestinal fatty acid binding protein
[1]
  DR/DR OA: 1.34
[2]
  DR/DR LA: 1.51
[3]
  DR/DR PA: 0.70
[4]; Arachidonic acid
  DR/DR AA: 1.39
[5]
  DR/DR LNA: 1.44

B10: 51A1, 72A (protein, listed as Rattus norvegicus)
chain: AFDGTWKVDRNENYEKFMEKMGINVVKRKLGAHDNLKLTITQEGNKFTVKASSNFRNIDVVFELGVDFAYSAADGTELTGTWTMEGNKLVGKFKRVDNGKELIAVREISGNELIQTYTYEGVEAKRIFKKE
modifications: PEPTIDE (1)...(131) wild-type rat intestinal fatty acid binding protein
[1]
  DR/DR OA: 1.28
[2]
  DR/DR LA: 1.48
[3]
  DR/DR PA: 0.70
[4]; Arachidonic acid
  DR/DR AA: 1.38
[5]
  DR/DR LNA: 1.49

B11: 49M1, 72A (protein, listed as Rattus norvegicus)
chain: AFDGTWKVDRNENYEKFMEKMGINVVKRKLGAHDNLKLTITQEGNKFTMKESSNFRNIDVVFELGVDFAYSAADGTELTGTWTMEGNKLVGKFKRVDNGKELIAVREISGNELIQTYTYEGVEAKRIFKKE
modifications: PEPTIDE (1)...(131) wild-type rat intestinal fatty acid binding protein
[1]
  DR/DR OA: 1.30
[2]
  DR/DR LA: 1.37
[3]
  DR/DR PA: 0.94
[4]; Arachidonic acid
  DR/DR AA: 1.36
[5]
  DR/DR LNA: 1.37

B12: 49L1, 72A (protein, listed as Rattus norvegicus)
chain: AFDGTWKVDRNENYEKFMEKMGINVVKRKLGAHDNLKLTITQEGNKFTLKESSNFRNIDVVFELGVDFAYSAADGTELTGTWTMEGNKLVGKFKRVDNGKELIAVREISGNELIQTYTYEGVEAKRIFKKE
modifications: PEPTIDE (1)...(131) wild-type rat intestinal fatty acid binding protein
[1]
  DR/DR OA: 1.67
[2]
  DR/DR LA: 1.81
[3]
  DR/DR PA: 1.00
[4]; Arachidonic acid
  DR/DR AA: 1.76
[5]
  DR/DR LNA: 1.77

B13: 49P1, 72A (protein, listed as Rattus norvegicus)
chain: AFDGTWKVDRNENYEKFMEKMGINVVKRKLGAHDNLKLTITQEGNKFTPKESSNFRNIDVVFELGVDFAYSAADGTELTGTWTMEGNKLVGKFKRVDNGKELIAVREISGNELIQTYTYEGVEAKRIFKKE
modifications: PEPTIDE (1)...(131) wild-type rat intestinal fatty acid binding protein
[1]
  DR/DR OA: 1.40
[2]
  DR/DR LA: 1.59
[3]
  DR/DR PA: 0.76
[4]; Arachidonic acid
  DR/DR AA: 1.57
[5]
  DR/DR LNA: 1.53

B14: 102V, 72A (protein, listed as Rattus norvegicus)
chain: AFDGTWKVDRNENYEKFMEKMGINVVKRKLGAHDNLKLTITQEGNKFTVKESSNFRNIDVVFELGVDFAYSAADGTELTGTWTMEGNKLVGKFKRVDNGKEVIAVREISGNELIQTYTYEGVEAKRIFKKE
modifications: PEPTIDE (1)...(131) wild-type rat intestinal fatty acid binding protein
[1]
  DR/DR OA: 0.57
[2]
  DR/DR LA: 0.67
[3]
  DR/DR PA: 0.35
[4]; arachidonic acid
  DR/DR AA: 0.46
[5]
  DR/DR LNA: 0.51

B15: 49Q, 72A (protein, listed as Rattus norvegicus)
chain: AFDGTWKVDRNENYEKFMEKMGINVVKRKLGAHDNLKLTITQEGNKFTQKESSNFRNIDVVFELGVDFAYSAADGTELTGTWTMEGNKLVGKFKRVDNGKELIAVREISGNELIQTYTYEGVEAKRIFKKE
modifications: PEPTIDE (1)...(131) wild-type rat intestinal fatty acid binding protein
[1]
  DR/DR OA: 0.56
[2]
  DR/DR LA: 0.58
[3]
  DR/DR PA: 0.43
[4]; Arachidonic acid
  DR/DR AA: 0.62
[5]
  DR/DR LNA: 0.55
